Source: patent US20180291335A1, “MODIFIED POLYNUCLEOTIDES FOR ALTERING CELL PHENOTYPE” (ModernaTX, Inc., priority 2012, published 2018)

B1: 100% modification: G-CSF mRNA (SEQ ID NO: 408, Cap1) completely modified with 5mC and pseudoU (nucleic acid)
chain: GGGAAAUAAGAGAGAAAAGAAGAGUAAGAAGAAAUAUAAGAGCCACCAUGGCCGGUCCCGCGACCCAAAGCCCCAUGAAACUUAUGGCCCUGCAGUUGCUGCUUUGGCACUCGGCCCUCUGGACAGUCCAAGAAGCGACUCCUCUCGGACCUGCCUCAUCGUUGCCGCAGUCAUUCCUUUUGAAGUGUCUGGAGCAGGUGCGAAAGAUUCAGGGCGAUGGAGCCGCACUCCAAGAGAAGCUCUGCGCGACAUACAAACUUUGCCAUCCCGAGGAGCUCGUACUGCUCGGGCACAGCUUGGGGAUUCCCUGGGCUCCUCUCUCGUCCUGUCCGUCGCAGGCUUUGCAGUUGGCAGGGUGCCUUUCCCAGCUCCACUCCGGUUUGUUCUUGUAUCAGGGACUGCUGCAAGCCCUUGAGGGAAUCUCGCCAGAAUUGGGCCCGACGCUGGACACGUUGCAGCUCGACGUGGCGGAUUUCGCAACAACCAUCUGGCAGCAGAUGGAGGAACUGGGGAUGGCACCCGCGCUGCAGCCCACGCAGGGGGCAAUGCCGGCCUUUGCGUCCGCGUUUCAGCGCAGGGCGGGUGGAGUCCUCGUAGCGAGCCACCUUCAAUCAUUUUUGGAAGUCUCGUACCGGGUGCUGAGACAUCUUGCGCAGCCGUGAAGCGCUGCCUUCUGCGGGGCUUGCCUUCUGGCCAUGCCCUUCUUCUCUCCCUUGCACCUGUACCUCUUGGUCUUUGAAUAAAGCCUGAGUAGGAAG
modifications: Cap1; full 5mC and pseudoU modification; Description of Artificial Sequence: Synthetic Transcript Sequence
B2: 25% modification: G-CSF mRNA (SEQ ID NO: 408) partially modified with 5mC and pseudoU, 25% modification (nucleic acid)
chain: B1 chain
modifications: 25% 5mC and pseudoU modification; Description of Artificial Sequence: Synthetic Transcript Sequence
B3: 0% modification: unmodified G-CSF mRNA (SEQ ID NO: 408), not modified with 5mC and pseudoU (nucleic acid)
chain: B1 chain
modifications: Description of Artificial Sequence: Synthetic Transcript Sequence
B4: 75% modification: G-CSF mRNA (SEQ ID NO: 408) partially modified with 5mC and pseudoU, 75% modification (nucleic acid)
chain: B1 chain
modifications: 75% 5mC/pseudoU modified; Description of Artificial Sequence: Synthetic Transcript Sequence
B5: 50% modification: G-CSF mRNA (SEQ ID NO: 408) partially modified with 5mC and pseudoU, 50% modification (nucleic acid)
chain: B1 chain
modifications: 50% 5mC/pseudoU modified; Description of Artificial Sequence: Synthetic Transcript Sequence

What was measured:
Format in all cases: cell-based, human
[1] = system: peripheral blood mononuclear cells (PBMC); assay: In vitro PBMC study, percent modification: G-CSF expression by ELISA; details: for G-CSF Expression: 22 hours after transfection; for Average G-CSF: PBMC, average of three donors
Description: 480 ng of G-CSF mRNA modified with 5-methylcytosine (5mC) and pseudouridine (pseudoU) or unmodified G-CSF mRNA was transfected with 0.4 uL of Lipofectamine 2000 into peripheral blood mononuclear cells (PBMC) from three normal blood donors (D1, D2, and D3). […] The supernatant was harvested and run by ELISA 22 hours after transfection to determine the protein expression. The expression of IFN-alpha and TNF-alpha may be a secondary effect from the transfection of the G-CSF mRNA.

IFN-alpha = assay: In vitro PBMC study, percent modification: IFN-alpha expression by ELISA; details: for Average IFN-a: average of three donors; for G-CSF/IFN-alpha (PC ratio): protein/cytokine ratio from averages
Description: (§1) The supernatant was harvested and run by ELISA 22 hours after transfection to determine the protein expression.

TNF-alpha = assay: In vitro PBMC study, percent modification: TNF-alpha expression by ELISA; details: for Average TNF-a: average of three donors; for G-CSF/TNF-alpha (PC ratio): protein/cytokine ratio from averages
Description: as §1

[2] = PBMC donor D1, 22 hours after transfection
[3] = PBMC donor D2, 22 hours after transfection
[4] = PBMC donor D3, 22 hours after transfection
[5] = PBMC, versus natural G-CSF mRNA

| Molecule | G-CSF Expression ([1]; PBMC donor D1, 480 ng mRNA) | G-CSF Expression ([1]; PBMC donor D2, 480 ng mRNA) | G-CSF Expression ([1]; PBMC donor D3, 480 ng mRNA) | IFN-alpha Expression (IFN-alpha; [2]) | IFN-alpha Expression (IFN-alpha; [3]) | IFN-alpha Expression (IFN-alpha; [4]) | Average IFN-a (IFN-alpha; PBMC) | G-CSF/IFN-alpha (PC ratio) (IFN-alpha; PBMC) | better ratio of protein/cytokine production than without any modification, IFN-alpha (IFN-alpha; [5]) | Average G-CSF [1] | TNF-alpha Expression (TNF-alpha; [2]) | TNF-alpha Expression (TNF-alpha; [3]) | TNF-alpha Expression (TNF-alpha; [4]) | Average TNF-a (TNF-alpha; PBMC) | G-CSF/TNF-alpha (PC ratio) (TNF-alpha; PBMC) | better ratio of protein/cytokine production than without any modification, TNF-alpha (TNF-alpha; [5]) |
| --- | --- | --- | --- | --- | --- | --- | --- | --- | --- | --- | --- | --- | --- | --- | --- | --- |
| Luciferase: control Luciferase mRNA (SEQ ID NO: 409, Cap1) fully modified 5meC and pseudoU [reference compound] | 90.2 pg/mL | 0.0 pg/mL | 22.1 pg/mL | – | – | – | – | – | – | – | – | – | – | – | – | – |
| B1 | 1968.9 pg/mL | 2595.6 pg/mL | 2835.7 pg/mL | 336.5 pg/mL | 78.0 pg/mL | 46.4 pg/mL | 153 pg/mL | 16 | 100 fold | 2466 pg/mL | 115.0 pg/mL | 15.0 pg/mL | 11.1 pg/mL | 47 pg/mL | 52 | 27 fold |
| B2 | 139.3 pg/mL | 126.9 pg/mL | 102.0 pg/mL | 564.3 pg/mL | 400.4 pg/mL | 670.7 pg/mL | 545 pg/mL | 0.2 | – | 122 pg/mL | 85.6 pg/mL | 26.6 pg/mL | 19.8 pg/mL | 44 pg/mL | 2.8 | – |
| B3 | 194.8 pg/mL | 182.0 pg/mL | 183.3 pg/mL | 1421.6 pg/mL | 810.5 pg/mL | 1260.5 pg/mL | 1164 pg/mL | 0.16 | – | 186 pg/mL | 154.6 pg/mL | 96.8 pg/mL | 45.9 pg/mL | 99 pg/mL | 1.9 | – |
| B4 | 566.7 pg/mL | 631.4 pg/mL | 659.5 pg/mL | 339.6 pg/mL | 107.6 pg/mL | 160.9 pg/mL | 202 pg/mL | 3.1 | – | 619 pg/mL | 107.4 pg/mL | 21.7 pg/mL | 11.8 pg/mL | 47 pg/mL | 13 | – |
| B5 | 188.9 pg/mL | 187.2 pg/mL | 191.9 pg/mL | 478.9 pg/mL | 261.1 pg/mL | 389.7 pg/mL | 376 pg/mL | 0.5 | – | 189 pg/mL | 49.6 pg/mL | 24.1 pg/mL | 10.4 pg/mL | 28 pg/mL | 6.8 | – |
